# Measured values: patent US20200181634A1 (MENDEL BIOTECHNOLOGY, published 2020)
# T1: SALT TOLERANCE HOMOLOG2 (STH2) (Arabidopsis thaliana, UniProt Q9LQZ7 1-331, limits assumed)
# T1 construct: also called G1482
# T1 sequence: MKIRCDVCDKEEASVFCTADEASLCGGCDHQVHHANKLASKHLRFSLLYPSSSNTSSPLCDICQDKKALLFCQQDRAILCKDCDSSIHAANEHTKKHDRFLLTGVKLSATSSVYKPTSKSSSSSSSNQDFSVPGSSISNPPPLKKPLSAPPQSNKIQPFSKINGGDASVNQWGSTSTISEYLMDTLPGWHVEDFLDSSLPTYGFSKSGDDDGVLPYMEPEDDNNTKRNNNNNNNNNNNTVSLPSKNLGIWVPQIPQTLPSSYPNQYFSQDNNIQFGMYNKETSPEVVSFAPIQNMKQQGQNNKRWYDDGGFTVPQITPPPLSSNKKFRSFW
# B1: G1988 (other)
# chain: MVSFCELCGAEADLHCAADSAFLCRSCDAKFHASNFLFARHFRRVICPNCKSLTQNFVSGPLLPWPPRTTCCSESSSSSCCSSLDCVSSSELSSTTRDVNRARGRENRVNAKAVAVTVADGIFVNWCGKLGLNRDLTNAVVSYASLALAVETRPRATKRVFLAAAFWFGVKNTTTWQNLKKVEDVTGVSAGMIRAVESKLARAMTQQLRRWRVDSEEGWAENDNV
# notes: also called B-box zinc finger transcription factor G1988
# Target: T1, SALT TOLERANCE HOMOLOG2 (STH2)
# Experiment: in vitro and protoplast based studies (methods not described)
binder,measurement,value
B1,binding result,binds
